From IntAct's records for PubMed 29892012 come the findings set out here.

Sequences and labels used below:
B1: Abl interactor 2 (Homo sapiens), Q9NYB9 (parent)
chain: MAELQMLLEEEIPGGRRALFDSYTNLERVADYCENNYIQSADKQRALEETKAYTTQSLASVAYLINTLANNVLQMLDIQASQLRRMESSINHISQTVDIHKEKVARREIGILTTNKNTSRTHKIIAPANLERPVRYIRKPIDYTILDDIGHGVKWLLRFKVSTQNMKMGGLPRTTPPTQKPPSPPMSGKGTLGRHSPYRTLEPVRPPVVPNDYVPSPTRNMAPSQQSPVRTASVNQRNRTYSSSGSSGGSHPSSRSSSRENSGSGSVGVPIAVPTPSPPSVFPAPAGSAGTPPLPATSASAPAPLVPATVPSSTAPNAAAGGAPNLADGFTSPTPPVVSSTPPTGHPVQFYSMNRPASRHTPPTIGGSLPYRRPPSITSQTSLQNQMNGGPFYSQNPVSDTPPPPPPVEEPVFDESPPPPPPPEDYEEEEAAVVEYSDPYAEEDPPWAPRSYLEKVVAIYDYTKDKEDELSFQEGAIIYVIKKNDDGWYEGVMNGVTGLFPGNYVESIMHYSE
B2: Abl interactor 2 (Homo sapiens), Q9NYB9 (parent)
chain: B1 chain
partner: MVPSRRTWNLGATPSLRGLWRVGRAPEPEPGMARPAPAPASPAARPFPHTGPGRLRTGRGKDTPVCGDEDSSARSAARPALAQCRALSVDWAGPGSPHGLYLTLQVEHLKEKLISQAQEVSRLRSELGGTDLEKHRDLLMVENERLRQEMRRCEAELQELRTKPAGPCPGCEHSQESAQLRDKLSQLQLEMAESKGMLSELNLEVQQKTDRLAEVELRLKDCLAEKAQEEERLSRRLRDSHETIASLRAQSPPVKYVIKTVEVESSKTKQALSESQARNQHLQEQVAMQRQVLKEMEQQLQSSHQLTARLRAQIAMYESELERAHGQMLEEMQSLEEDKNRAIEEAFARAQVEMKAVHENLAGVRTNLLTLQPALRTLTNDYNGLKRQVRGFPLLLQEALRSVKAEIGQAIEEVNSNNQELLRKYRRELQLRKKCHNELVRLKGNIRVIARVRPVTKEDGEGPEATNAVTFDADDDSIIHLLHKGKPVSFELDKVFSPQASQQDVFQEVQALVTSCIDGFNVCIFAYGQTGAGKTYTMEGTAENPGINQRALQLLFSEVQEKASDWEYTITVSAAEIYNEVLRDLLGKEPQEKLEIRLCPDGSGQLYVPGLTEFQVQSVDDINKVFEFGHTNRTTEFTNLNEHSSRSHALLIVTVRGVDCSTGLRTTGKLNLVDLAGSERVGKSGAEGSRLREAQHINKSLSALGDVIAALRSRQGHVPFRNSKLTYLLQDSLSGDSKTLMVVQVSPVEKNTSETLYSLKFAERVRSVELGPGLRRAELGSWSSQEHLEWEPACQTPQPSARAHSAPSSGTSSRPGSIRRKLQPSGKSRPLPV

Variants of B1 are the subject of the first assay. The note with it: with ift20_human IFT20, Q8IY31.
In the case of E202K, the “effect of a mutation on the interaction” value is given as “with no effect”.

In another assay the parent is B1. The note with it: with wipf1_human WIPF1, O43516.
Sequence of wipf1_human WIPF1, O43516 (O43516 whole entry): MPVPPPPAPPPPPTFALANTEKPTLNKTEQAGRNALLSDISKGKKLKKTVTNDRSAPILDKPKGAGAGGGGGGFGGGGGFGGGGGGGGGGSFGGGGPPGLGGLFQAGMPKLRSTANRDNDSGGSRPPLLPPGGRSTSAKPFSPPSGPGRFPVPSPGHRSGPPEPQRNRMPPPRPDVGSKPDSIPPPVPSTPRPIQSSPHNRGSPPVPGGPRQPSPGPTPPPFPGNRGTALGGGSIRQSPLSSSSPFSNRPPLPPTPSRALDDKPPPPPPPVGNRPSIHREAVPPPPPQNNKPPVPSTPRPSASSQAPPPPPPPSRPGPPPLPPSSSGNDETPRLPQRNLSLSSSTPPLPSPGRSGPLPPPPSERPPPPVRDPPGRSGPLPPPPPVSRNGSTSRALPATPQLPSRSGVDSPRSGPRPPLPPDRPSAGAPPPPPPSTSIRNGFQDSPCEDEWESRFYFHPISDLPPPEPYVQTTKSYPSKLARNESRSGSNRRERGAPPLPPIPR
As for E202K, the “effect of a mutation on the interaction” value is given as “with no effect”.

In the next assay the parent is B1. The note with it: with k1h1_human KRT31, Q15323.
Sequence of k1h1_human KRT31, Q15323 (Q15323 whole entry): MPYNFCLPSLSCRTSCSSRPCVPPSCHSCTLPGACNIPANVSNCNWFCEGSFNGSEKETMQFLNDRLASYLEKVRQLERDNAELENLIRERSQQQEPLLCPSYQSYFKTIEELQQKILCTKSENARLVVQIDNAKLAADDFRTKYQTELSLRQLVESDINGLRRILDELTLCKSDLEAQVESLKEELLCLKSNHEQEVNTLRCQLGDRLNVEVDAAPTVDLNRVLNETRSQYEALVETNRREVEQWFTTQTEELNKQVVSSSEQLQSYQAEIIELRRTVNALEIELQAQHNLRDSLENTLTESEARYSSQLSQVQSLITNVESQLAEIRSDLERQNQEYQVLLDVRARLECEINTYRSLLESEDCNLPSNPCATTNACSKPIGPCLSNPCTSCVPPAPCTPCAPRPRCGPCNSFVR
E202K: the “effect of a mutation on the interaction” value is on record as “with no effect”.

The variants in another assay derive from B1. The note with it: with aapk2_human PRKAA2, P54646.
Sequence of aapk2_human PRKAA2, P54646 (P54646 whole entry, looked up): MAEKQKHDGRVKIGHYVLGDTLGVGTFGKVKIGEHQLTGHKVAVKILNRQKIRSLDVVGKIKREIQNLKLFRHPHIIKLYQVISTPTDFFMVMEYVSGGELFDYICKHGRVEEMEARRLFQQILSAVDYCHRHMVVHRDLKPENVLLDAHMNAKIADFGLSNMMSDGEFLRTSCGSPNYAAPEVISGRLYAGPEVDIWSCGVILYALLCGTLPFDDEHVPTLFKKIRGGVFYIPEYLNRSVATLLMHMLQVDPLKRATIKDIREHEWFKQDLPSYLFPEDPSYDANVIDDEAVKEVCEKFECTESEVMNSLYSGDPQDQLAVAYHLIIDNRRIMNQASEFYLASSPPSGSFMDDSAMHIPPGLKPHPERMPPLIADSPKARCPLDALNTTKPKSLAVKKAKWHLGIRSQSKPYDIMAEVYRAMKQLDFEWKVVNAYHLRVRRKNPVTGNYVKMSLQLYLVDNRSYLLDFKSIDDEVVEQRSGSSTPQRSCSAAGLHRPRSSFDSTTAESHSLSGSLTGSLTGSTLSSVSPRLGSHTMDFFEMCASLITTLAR
For E202K, the “effect of a mutation on the interaction” value is given as “with no effect”.

The variants in another assay derive from B1. The note with it: with skt_human KIAA1217, Q5T5P2.
Sequence of skt_human KIAA1217, Q5T5P2 (Q5T5P2 whole entry): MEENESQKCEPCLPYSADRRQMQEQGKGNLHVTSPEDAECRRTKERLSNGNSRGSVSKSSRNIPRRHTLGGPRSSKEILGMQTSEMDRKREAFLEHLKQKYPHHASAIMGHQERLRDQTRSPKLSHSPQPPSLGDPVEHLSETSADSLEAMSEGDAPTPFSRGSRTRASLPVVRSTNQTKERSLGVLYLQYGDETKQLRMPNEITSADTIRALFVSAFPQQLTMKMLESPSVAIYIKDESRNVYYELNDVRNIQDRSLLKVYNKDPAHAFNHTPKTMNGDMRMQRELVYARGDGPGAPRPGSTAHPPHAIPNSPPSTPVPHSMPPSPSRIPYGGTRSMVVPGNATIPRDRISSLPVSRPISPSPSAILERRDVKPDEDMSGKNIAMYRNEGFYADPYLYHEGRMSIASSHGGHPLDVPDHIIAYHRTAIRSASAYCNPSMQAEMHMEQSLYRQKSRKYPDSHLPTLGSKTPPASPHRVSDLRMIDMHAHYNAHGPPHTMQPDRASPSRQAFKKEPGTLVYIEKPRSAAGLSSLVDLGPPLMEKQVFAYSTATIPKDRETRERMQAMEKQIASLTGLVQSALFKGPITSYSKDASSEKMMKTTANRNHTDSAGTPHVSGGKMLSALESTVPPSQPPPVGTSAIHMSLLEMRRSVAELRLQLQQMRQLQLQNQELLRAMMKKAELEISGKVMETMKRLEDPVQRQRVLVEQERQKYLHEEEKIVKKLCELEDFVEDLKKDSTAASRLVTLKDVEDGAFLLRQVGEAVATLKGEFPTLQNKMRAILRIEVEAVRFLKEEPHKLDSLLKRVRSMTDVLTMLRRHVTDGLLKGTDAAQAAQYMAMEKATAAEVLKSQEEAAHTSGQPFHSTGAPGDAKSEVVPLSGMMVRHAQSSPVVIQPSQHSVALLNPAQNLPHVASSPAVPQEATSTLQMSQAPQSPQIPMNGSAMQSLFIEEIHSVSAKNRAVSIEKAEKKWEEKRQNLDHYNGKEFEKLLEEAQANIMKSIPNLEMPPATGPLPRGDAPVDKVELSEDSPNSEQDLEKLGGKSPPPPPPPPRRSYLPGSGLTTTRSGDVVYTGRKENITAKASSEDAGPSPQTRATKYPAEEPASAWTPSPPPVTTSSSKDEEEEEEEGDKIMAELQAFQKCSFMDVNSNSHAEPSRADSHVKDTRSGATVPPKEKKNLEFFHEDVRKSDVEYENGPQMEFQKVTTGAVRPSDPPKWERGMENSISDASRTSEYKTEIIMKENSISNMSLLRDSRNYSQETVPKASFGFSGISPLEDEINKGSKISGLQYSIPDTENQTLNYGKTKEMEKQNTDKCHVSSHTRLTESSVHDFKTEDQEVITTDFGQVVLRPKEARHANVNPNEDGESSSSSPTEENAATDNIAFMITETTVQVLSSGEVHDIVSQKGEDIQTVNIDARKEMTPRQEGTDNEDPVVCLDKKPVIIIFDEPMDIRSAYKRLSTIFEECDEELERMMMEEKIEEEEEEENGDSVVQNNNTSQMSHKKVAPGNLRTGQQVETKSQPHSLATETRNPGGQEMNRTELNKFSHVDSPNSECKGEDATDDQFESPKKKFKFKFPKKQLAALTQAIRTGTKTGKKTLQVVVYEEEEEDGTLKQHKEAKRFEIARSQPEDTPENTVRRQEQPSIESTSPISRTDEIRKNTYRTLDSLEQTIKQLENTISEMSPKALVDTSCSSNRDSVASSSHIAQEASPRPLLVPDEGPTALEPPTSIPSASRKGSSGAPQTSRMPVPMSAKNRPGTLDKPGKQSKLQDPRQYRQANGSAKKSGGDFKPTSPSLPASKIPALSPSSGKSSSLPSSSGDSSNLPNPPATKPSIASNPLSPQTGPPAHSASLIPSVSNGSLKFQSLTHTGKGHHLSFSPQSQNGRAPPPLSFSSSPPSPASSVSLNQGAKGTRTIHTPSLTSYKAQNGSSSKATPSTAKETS
Take E202K: the “effect of a mutation on the interaction” value is “with no effect”.

In a further assay the parent is B1. The note with it: with aapk1_human PRKAA1, Q13131.
For E202K, the “effect of a mutation on the interaction” value is recorded as “with no effect”.

Another assay covers variants of B1. The note with it: with eif3h_human EIF3H.
With E202K, the “effect of a mutation on the interaction” value is “with no effect”.

Variants of B1 are the subject of the next assay. The note with it: with hnrpk_human HNRNPK.
As to E202K, the “effect of a mutation on the interaction” value is recorded as “with no effect”.

Another assay covers variants of B1. The note with it: with tri32_human TRIM32, Q13049.
Sequence of tri32_human TRIM32, Q13049 (Q13049 whole entry): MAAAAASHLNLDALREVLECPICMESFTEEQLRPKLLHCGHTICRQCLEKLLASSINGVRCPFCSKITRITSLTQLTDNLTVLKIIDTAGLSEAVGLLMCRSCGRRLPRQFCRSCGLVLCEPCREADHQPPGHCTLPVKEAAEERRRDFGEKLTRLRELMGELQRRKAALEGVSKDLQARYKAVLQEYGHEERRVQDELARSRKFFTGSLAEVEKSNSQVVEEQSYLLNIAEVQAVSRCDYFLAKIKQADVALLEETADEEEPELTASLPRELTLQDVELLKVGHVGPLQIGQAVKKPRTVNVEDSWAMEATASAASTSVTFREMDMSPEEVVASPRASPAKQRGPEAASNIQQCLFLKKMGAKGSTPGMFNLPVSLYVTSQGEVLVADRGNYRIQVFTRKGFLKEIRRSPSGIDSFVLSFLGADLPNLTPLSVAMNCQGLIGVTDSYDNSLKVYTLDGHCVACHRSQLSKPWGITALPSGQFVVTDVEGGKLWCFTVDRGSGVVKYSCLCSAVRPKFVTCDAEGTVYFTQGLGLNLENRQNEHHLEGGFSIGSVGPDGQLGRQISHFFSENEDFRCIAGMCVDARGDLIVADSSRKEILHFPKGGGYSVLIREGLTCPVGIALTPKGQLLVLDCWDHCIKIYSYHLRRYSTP
For E202K, the “effect of a mutation on the interaction” value is listed as “with no effect”.

Variants of B1 are the subject of another assay. The note with it: with vasp_human VASP.
As to E202K, the “effect of a mutation on the interaction” value is on record as “with no effect”.

Variants of B1 are the subject of a further assay. The note with it: with ppif_human PPIF.
With E202K, the “effect of a mutation on the interaction” value is “with no effect”.

In another assay the parent is B1. The note with it: with KRT15, P19012.
Sequence of KRT15, P19012 (P19012 whole entry): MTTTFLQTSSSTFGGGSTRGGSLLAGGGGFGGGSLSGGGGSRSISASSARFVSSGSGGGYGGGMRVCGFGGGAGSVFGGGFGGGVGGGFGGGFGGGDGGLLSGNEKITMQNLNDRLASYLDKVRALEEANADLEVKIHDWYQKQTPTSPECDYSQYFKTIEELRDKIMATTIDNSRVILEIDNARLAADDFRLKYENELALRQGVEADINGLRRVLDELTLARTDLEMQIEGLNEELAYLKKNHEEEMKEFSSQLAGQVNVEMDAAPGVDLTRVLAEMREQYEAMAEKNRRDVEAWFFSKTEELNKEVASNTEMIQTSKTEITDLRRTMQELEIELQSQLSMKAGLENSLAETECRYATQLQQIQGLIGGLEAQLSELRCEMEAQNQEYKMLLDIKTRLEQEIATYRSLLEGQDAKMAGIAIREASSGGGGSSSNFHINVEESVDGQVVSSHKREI
In the case of E202K, the “effect of a mutation on the interaction” value is “with no effect”.

The next assay covers variants of B1. The note with it: with nup62_human NUP62, P37198.
Take E202K: the “effect of a mutation on the interaction” value is “with no effect”.

The variants in another assay derive from B1. The note with it: with KRT19, P08727.
Sequence of KRT19, P08727 (P08727 whole entry): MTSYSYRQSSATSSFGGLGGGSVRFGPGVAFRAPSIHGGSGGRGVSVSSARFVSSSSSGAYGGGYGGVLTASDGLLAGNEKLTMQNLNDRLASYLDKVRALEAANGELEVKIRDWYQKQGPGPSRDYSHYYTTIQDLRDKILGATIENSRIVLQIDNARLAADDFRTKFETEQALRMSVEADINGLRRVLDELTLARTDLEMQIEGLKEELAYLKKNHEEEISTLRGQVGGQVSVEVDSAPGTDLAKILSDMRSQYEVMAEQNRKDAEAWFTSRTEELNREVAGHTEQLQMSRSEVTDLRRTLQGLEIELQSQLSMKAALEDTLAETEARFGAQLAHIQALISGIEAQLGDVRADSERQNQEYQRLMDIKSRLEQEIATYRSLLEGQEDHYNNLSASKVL
For the variant E202K, the “effect of a mutation on the interaction” value is recorded as “with no effect”.

A further assay covers variants of B1. The note with it: with rhg32_human ARHGAP32, A7KAX9.
Turning to E202K, the “effect of a mutation on the interaction” value is on record as “with no effect”.

The variants in another assay derive from B1. The note with it: with nck2_human NCK2, O43639.
For the variant E202K, the “effect of a mutation on the interaction” value is listed as “with no effect”.

The variants in the next assay derive from B1. The note with it: with hgs_human HGS.
In the case of E202K, the “effect of a mutation on the interaction” value was “with no effect”.

In another assay the parent is B1. The note with it: with pcm1_human PCM1, Q15154.
Turning to E202K, the “effect of a mutation on the interaction” value was “with no effect”.

The variants in another assay derive from B1. The note with it: with stam2_human STAM2, O75886.
As to E202K, the “effect of a mutation on the interaction” value is on record as “with no effect”.

The variants in a further assay derive from B1. The note with it: with vinc_human VCL.
As to E202K, the “effect of a mutation on the interaction” value is listed as “disrupting interaction strength”.

In the next assay the parent is B1. The note with it: with crx_human CRX.
Take E202K: the “effect of a mutation on the interaction” value was “with no effect”.

Variants of B1 are the subject of a further assay. The note with it: with mr1l1_human MRFAP1L1, Q96HT8.
Sequence of mr1l1_human MRFAP1L1, Q96HT8 (Q96HT8 whole entry): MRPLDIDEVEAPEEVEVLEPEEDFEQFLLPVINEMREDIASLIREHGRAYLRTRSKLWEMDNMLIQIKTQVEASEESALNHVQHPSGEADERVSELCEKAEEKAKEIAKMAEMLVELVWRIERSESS
As for E202K, the “effect of a mutation on the interaction” value was “disrupting interaction strength”.

In another assay the parent is B1. The note with it: with sdcb1_human SDCBP.
With E202K, the “effect of a mutation on the interaction” value is given as “disrupting interaction strength”.

Variants of B1 are the subject of another assay. The note with it: with efs_human EFS.
Regarding E202K, the “effect of a mutation on the interaction” value is “with no effect”.

Variants of B2 are the subject of the next assay. The note with it: with kifc3_human KIFC3, Q9BVG8.
With E202K, the “effect of a mutation on the interaction” value was “with no effect”.

The variants in the next assay derive from B2. The note with it: with kifc3_human KIFC3, Q9BVG8. The source holds these as a separate data set.
On to R373C, for which the “effect of a mutation on the interaction” value was “disrupting interaction strength”.
